Assay results published in publication doi:10.1101/2021.03.28.437443.

Molecular target: uncleaved full-length membrane-anchored HIV-1 JR-FL Env(-) glycoprotein (HIV-1 (strain JR-FL))
Experiment: cryo-EM structure

Substance: uncleaved full-length membrane-anchored HIV-1 JR-FL Env(-) glycoprotein (natural protein)
- stoichiometry N: 3
